Article PMC2924460 (Arteriosclerosis, thrombosis, and vascular biology, 2010)

Target: the molecule itself
Test: FRET or BRET

B1: thromboxane A2 receptor alpha (TPα), fused to renilla luciferase (TPαrLUC) or to yellow fluorescent protein (TPαYFP) (receptor, UniProt P21731 1-343, looked up)
chain: MWPNGSSLGPCFRPTNITLEERRLIASPWFAASFCVVGLASNLLALSVLAGARQGGSHTRSSFLTFLCGLVLTDFLGLLVTGTIVVSQHAALFEWHAVDPGCRLCRFMGVVMIFFGLSPLLLGAAMASERYLGITRPFSRPAVASQRRAWATVGLVWAAALALGLLPLLGVGRYTVQYPGSWCFLTLGAESGDVAFGLLFSMLGGLSVGLSFLLNTVSVATLCHVYHGQEAAQQRPRDSEVEMMAQLLGIMVVASVCWLPLLVFIAQTVLRNPPAMSPAGQLSRTTEKELLIYLRVATWNQILDPWVYILFRRAVLRRLQPRLSTRPRSLSLQPQLTQRSGLQ
Q: With B1 as the protein, how does the BRET50 read?
A: 1.24 YFP fold over basal
